Source: patent US20220411504A1

Key:
[1] = target: human Kallikrein-2 6-His protein (soluble hK2) (human) (UniProt P20151); assay: SPR, antibody captured by anti-Fc, soluble hK2 injected
[2] = target: HLA-A on cells (human) (UniProt P04439); assay: flow cytometry, IgG1 mAb on cells expressing HLA-A
[3] = target: HLA-C on cells (human) (UniProt P10321); assay: flow cytometry, IgG1 mAb on cells expressing HLA-C
[4] = target: HLA-B on cells (human) (UniProt P01889); assay: flow cytometry, IgG1 mAb on cells expressing HLA-B

Kd [1] [nM] | Binder | further results
34.3 | KL2B413 (scFv-LH-Fc) (Fc fusion, not shown: a dimerising Fc or GST) scFv: EIVLTQSPSFLSASVGDRVTITCRASQGISSYLSWYQQKPGKAPKLLIYATSTLQSGVPSRFSGSGSGTEFTLTISSLQPEDFATYYCQQLNSYPRTFGQGTKVEIKGGSEGKSSGSGSESKSTGGSEVQLVESGGGLVQPGGSLRLSCAASGFTFSSYWMTWVRQAPGKGLEWVANIKQDGSERYYVDSVKGRFTISRDNAKNSLYLQMNSLRAEDTAVYYCARDQNYDILTGHYGMDVWGQGTTVTVSS | 
0.7 to 1 | KL2B359 (scFv-LH-Fc) (Fc fusion, not shown: a dimerising Fc or GST) scFv: EIVLTQSPATLSLSPGERATLSCRASESVEYFGTSLMHWYQQKPGQPPRLLIYAASNVESGIPARFSGSGSGTDFTLTISSVEPEDFAVYFCQQTRKVPYTFGGGTKVEIKGGSEGKSSGSGSESKSTGGSQVQLQESGPGLVKPSQTLSLTCTVSGNSITSDYAWNWIRQFPGKRLEWIGYISYSGSTTYNPSLKSRVTISRDTSKNQFSLKLSSVTAADTAVYYCATGYYYGSGFWGQGTLVTVSS | 
0.08 | KL2B53 (antibody, human IgG4 S228P, kappa, F234A L235A, V domains shown) VH: EVQLVESGGGVVQPGRSLRLSCVASGFTFSSYDIHWVRQAPGKGLEWVAIISYDGSKKDYTDSVKGRFTISRDNSKNTLYLQMDSLRVEDSAVYSCARESGWSHYYYYGMDVWGQGTMVTVSS VL: DIVMTQSPSSLSASVGDRVTITCRASQDISNYLAWYQQKPGKVPKFLIYAASTLHSGVPSRFSGSGSGTDFTLTISSLQPEDVATYYCQKYNSAPYTFGQGTRLEIKR | 
0.46 | KL2B30 (antibody, human IgG4 S228P, kappa, F234A L235A, V domains shown) VH: QVQLQESGPGLVKPSETLSLTCTVSGGSISSYYWSWIRQPPGKGLEWIGYIYYSGSTNYNPSLKSRVTISVDTSKNQFSLKLSSVTAADTAVYYCAGTTIFGVVTPNFYYGMDVWGQGTTVTVSS VL: DIQMTQSPSFLSASVGDRVTITCRASQGISSYLAWYQQKPGKAPKFLIYAASTLQSGVPSRFSGSGSGTEFTLTISSLQPEDFATYYCQQLNSYPLTFGGGTKVEIKR | 
 | MHGB689 (antibody, human IgG1, kappa, V domains shown) VH: QVQLQQSGPGLVKPSQTLSLTCVISGDSVSSNRAAWNWIRQSPSRGLEWLGRTYYRSKWYNDYAVSVKSRITINSDTSKNQISLQLNSVTPEDTAVYYCARVRPGIPFDYWGQGTTVTVSS VL: DIQMTQSPDSLAVSLGERATINCESSQSVLFSSNKKNYLAWYQQKPGQPPKLLIYWASTRESGVPDRFSGSGSGTDFTLTINRLQAEDVAVYYCQQYNSTPWTFGQGTKVEIKR | GeoMean fluorescence (maximum value) [2]: 2540; GeoMean fluorescence (maximum value) [3]: 266; GeoMean fluorescence (maximum value) [4]: 5790
0.04 | KL2B242 (antibody, human IgG4 S228P, lambda, F234A L235A, V domains shown) VH: QVQLQESGPGLVKPSETLSLTCTVSGGSISSYYWSWLRQPAGSGLEWIGRLYVSGFTNYNPSLKSRVTLSLDPSRNQLSLKLSSVTAADTAVYYCAGDSGNYWGWFDPWGQGTLVTVSS VL: SYELTQPPSVSVSPGETASITCSGDQLGENYACWYQQKPGQSPVLVIYQDSKRPSGIPERFSGSNSGNTATLTISGTQALDEADYYCQAWDNSIVVFGGGTKLTVLG | 
